From patent US20130149320A1 (CENTRE NATIONAL DE LA RECHERCHE SCIENTIFIQUE, published 2013)
Ends that are not written are not given here.

Target: T1, Asf1 from Xenopus laevis (endogenous, high speed egg extract) (Xenopus laevis, UniProt Q69DB9 1-201, limits assumed)
T1 construct: also called Asf1 from X. laevis
Assay: GST pull-down on Xenopus egg extract (HSE), Western blot
Method: FIG. 22. Inhibition of chromatin assembly with the B-domain of HIRA. FIG. 22A Binding of the wild-type but not the mutated form (I461D) of the B-domain of HIRA to Asf1. GST pull-down was performed on HSE extracts with […] of recombinant GST B-domain of HIRA proteins on beads. Input and flowthrough are 10% of the immunoprecipitated material. […] FIG. 22B The B-domain of HIRA inhibits nucleosome assembly independent of replication. In vitro nucleosome assembly reactions independent of DNA synthesis were performed with increasing amounts (2, 4 or 8 mg) of the recombinant GST HIRA B-domain or its mutated form (I461D) added directly into the nucleosome assembly reaction mix. The purified plasmid DNA was analyzed by agarose elecrophoresis and was visualized by staining with ethidium bromide (EtBr). The migration positions of DNA plasmid form 1 (supercoiled), form 11 (nicked circular) and lr (closed circular) are indicated.
GST pull-downs were performed by mixing […] of High speed xenopus egg extract (HSE prepared as described in (Almouzni, 1998)), 1X nucleosome assembly buffer, 300 ng p^{bluescript}, 4 mM ATP, […] creatine kinase and 3 mg of recombinant protein on beads during 3 h at 23° C. The flow through was recovered and beads were washed 3 times with PBS supplemented with 150 mM NaCl and 0,5% NP40. Different fractions were loaded on a NuPAGE 4-12% (Invitrogen) and ran in MES buffer. […]

T1 sequence (Q69DB9 whole entry): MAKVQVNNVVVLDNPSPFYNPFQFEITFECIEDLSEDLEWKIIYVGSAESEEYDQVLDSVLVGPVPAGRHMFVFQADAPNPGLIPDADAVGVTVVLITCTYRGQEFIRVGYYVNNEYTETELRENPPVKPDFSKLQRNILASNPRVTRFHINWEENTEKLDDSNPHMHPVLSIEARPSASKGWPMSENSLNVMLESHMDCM

B1: recombinant GST HIRA B-domain I461D (mutated Xenopus laevis HIRA B-domain, aa 435-480) (other, not shown: a dimerising Fc or GST; small tags and cut ends)
chain: GESLEDIRKNLLKKQVETRTADGRRRDTPLCIAQLDTGDFSTAFFN
modifications: also: GST fusion tag, sequence not given here
notes: also called mutated GST-B-domain I461D; mutated form (I461D) of the B-domain of HIRA
- binding result: no binding (tested: 3 mg of recombinant protein on beads)
